From patent publication US20250339531A1, “DUX4 POLYPEPTIDES AND NUCLEIC ACIDS FOR TREATING INFLAMMATORY AND AUTOIMMUNE CONDITIONS” (Fred Hutchinson Cancer Center, priority 2021, published 2025)

B1: Q86YD1 (protein, UniProt Q86YD1 1-416, looked up)
chain: MVRPRRAPYRSGAGGPLGGRGRPPRPLVVRAVRSRSWPASPRGPQPPRIRARSAPPMEGARVFGALGPIGPSSPGLTLGGLAVSEHRLSNKLLAWSGVLEWQEKRRPYSDSTAKLKRTLPCQAYVNQGENLETDQWPQKLIMQLIPQQLLTTLGPLFRNSQLAQFHFTNRDCDSLKGLCRIMGNGFAGCMLFPHISPCEVRVLMLLYSSKKKIFMGLIPYDQSGFVSAIRQVITTRKQAVGPGGVNSGPVQIVNNKFLAWSGVMEWQEPRPEPNSRSKRWLPSHVYVNQGEILRTEQWPRKLYMQLIPQQLLTTLVPLFRNSRLVQFHFTKDLETLKSLCRIMDNGFAGCVHFSYKASCEIRVLMLLYSSEKKIFIGLIPHDQGNFVNGIRRVIANQQQVLQRNLEQEQQQRGMGG
modifications: full-length
B2: P17655 (protein, UniProt P17655 1-700, looked up)
chain: MAGIAAKLAKDREAAEGLGSHDRAIKYLNQDYEALRNECLEAGTLFQDPSFPAIPSALGFKELGPYSSKTRGIEWKRPTEICADPQFIIGGATRTDICQGALGDCWLLAAIASLTLNEEILARVVPLNQSFQENYAGIFHFQFWQYGEWVEVVVDDRLPTKDGELLFVHSAEGSEFWSALLEKAYAKINGCYEALSGGATTEGFEDFTGGIAEWYELKKPPPNLFKIIQKALQKGSLLGCSIDITSAADSEAITFQKLVKGHAYSVTGAEEVESNGSLQKLIRIRNPWGEVEWTGRWNDNCPSWNTIDPEERERLTRRHEDGEFWMSFSDFLRHYSRLEICNLTPDTLTSDTYKKWKLTKMDGNWRRGSTAGGCRNYPNTFWMNPQYLIKLEEEDEDEEDGESGCTFLVGLIQKHRRRQRKMGEDMHTIGFGIYEVPEELSGQTNIHLSKNFFLTNRARERSDTFINLREVLNRFKLPPGEYILVPSTFEPNKDGDFCIRVFSEKKADYQAVDDEIEANLEEFDISEDDIDDGFRRLFAQLAGEDAEISAFELQTILRRVLAKRQDIKSDGFSIETCKIMVDMLDSDGSGKLGLKEFYILWTKIQKYQKIYREIDVDRSGTMNSYEMRKALEEAGFKMPCQLHQVIVARFADDQLIIDFDNFVRCLVRLETLFKIFKQLDPENTGTIELDLISWLCFSVL
modifications: full-length
B3: Q07065 (protein, UniProt Q07065 1-602, looked up)
chain: MPSAKQRGSKGGHGAASPSEKGAHPSGGADDVAKKPPPAPQQPPPPPAPHPQQHPQQHPQNQAHGKGGHRGGGGGGGKSSSSSSASAAAAAAAASSSASCSRRLGRALNFLFYLALVAAAAFSGWCVHHVLEEVQQVRRSHQDFSRQREELGQGLQGVEQKVQSLQATFGTFESILRSSQHKQDLTEKAVKQGESEVSRISEVLQKLQNEILKDLSDGIHVVKDARERDFTSLENTVEERLTELTKSINDNIAIFTEVQKRSQKEINDMKAKVASLEESEGNKQDLKALKEAVKEIQTSAKSREWDMEALRSTLQTMESDIYTEVRELVSLKQEQQAFKEAADTERLALQALTEKLLRSEESVSRLPEEIRRLEEELRQLKSDSHGPKEDGGFRHSEAFEALQQKSQGLDSRLQHVEDGVLSMQVASARQTESLESLLSKSQEHEQRLAALQGRLEGLGSSEADQDGLASTVRSLGETQLVLYGDVEELKRSVGELPSTVESLQKVQEQVHTLLSQDQAQAARLPPQDFLDRLSSLDNLKASVSQVEADLKMLRTAVDSLVAYSVKIETNENNLESAKGLLDDLRNDLDRLFVKVEKIHEKV
modifications: full-length
B4: P51784 (protein, UniProt P51784 1-963, looked up)
chain: MAVAPRLFGGLCFRFRDQNPEVAVEGRLPISHSCVGCRRERTAMATVAANPAAAAAAVAAAAAVTEDREPQHEELPGLDSQWRQIENGESGRERPLRAGESWFLVEKHWYKQWEAYVQGGDQDSSTFPGCINNATLFQDEINWRLKEGLVEGEDYVLLPAAAWHYLVSWYGLEHGQPPIERKVIELPNIQKVEVYPVELLLVRHNDLGKSHTVQFSHTDSIGLVLRTARERFLVEPQEDTRLWAKNSEGSLDRLYDTHITVLDAALETGQLIIMETRKKDGTWPSAQLHVMNNNMSEEDEDFKGQPGICGLTNLGNTCFMNSALQCLSNVPQLTEYFLNNCYLEELNFRNPLGMKGEIAEAYADLVKQAWSGHHRSIVPHVFKNKVGHFASQFLGYQQHDSQELLSFLLDGLHEDLNRVKKKEYVELCDAAGRPDQEVAQEAWQNHKRRNDSVIVDTFHGLFKSTLVCPDCGNVSVTFDPFCYLSVPLPISHKRVLEVFFIPMDPRRKPEQHRLVVPKKGKISDLCVALSKHTGISPERMMVADVFSHRFYKLYQLEEPLSSILDRDDIFVYEVSGRIEAIEGSREDIVVPVYLRERTPARDYNNSYYGLMLFGHPLLVSVPRDRFTWEGLYNVLMYRLSRYVTKPNSDDEDDGDEKEDDEEDKDDVPGPSTGGSLRDPEPEQAGPSSGVTNRCPFLLDNCLGTSQWPPRRRRKQLFTLQTVNSNGTSDRTTSPEEVHAQPYIAIDWEPEMKKRYYDEVEAEGYVKHDCVGYVMKKAPVRLQECIELFTTVETLEKENPWYCPSCKQHQLATKKLDLWMLPEILIIHLKRFSYTKFSREKLDTLVEFPIRDLDFSEFVIQPQNESNPELYKYDLIAVSNHYGGMRDGHYTTFACNKDSGQWHYFDDNSVSPVNENQIESKAAYVLFYQRQDVARRLLSPAGSSGAPASPACSSPPSSEFMDVN
modifications: full-length
B5: P12814 (protein, UniProt P12814 1-892, looked up)
chain: MDHYDSQQTNDYMQPEEDWDRDLLLDPAWEKQQRKTFTAWCNSHLRKAGTQIENIEEDFRDGLKLMLLLEVISGERLAKPERGKMRVHKISNVNKALDFIASKGVKLVSIGAEEIVDGNVKMTLGMIWTIILRFAIQDISVEETSAKEGLLLWCQRKTAPYKNVNIQNFHISWKDGLGFCALIHRHRPELIDYGKLRKDDPLTNLNTAFDVAEKYLDIPKMLDAEDIVGTARPDEKAIMTYVSSFYHAFSGAQKAETAANRICKVLAVNQENEQLMEDYEKLASDLLEWIRRTIPWLENRVPENTMHAMQQKLEDFRDYRRLHKPPKVQEKCQLEINFNTLQTKLRLSNRPAFMPSEGRMVSDINNAWGCLEQVEKGYEEWLLNEIRRLERLDHLAEKFRQKASIHEAWTDGKEAMLRQKDYETATLSEIKALLKKHEAFESDLAAHQDRVEQIAAIAQELNELDYYDSPSVNARCQKICDQWDNLGALTQKRREALERTEKLLETIDQLYLEYAKRAAPFNNWMEGAMEDLQDTFIVHTIEEIQGLTTAHEQFKATLPDADKERLAILGIHNEVSKIVQTYHVNMAGTNPYTTITPQEINGKWDHVRQLVPRRDQALTEEHARQQHNERLRKQFGAQANVIGPWIQTKMEEIGRISIEMHGTLEDQLSHLRQYEKSIVNYKPKIDQLEGDHQLIQEALIFDNKHTNYTMEHIRVGWEQLLTTIARTINEVENQILTRDAKGISQEQMNEFRASFNHFDRDHSGTLGPEEFKACLISLGYDIGNDPQGEAEFARIMSIVDPNRLGVVTFQAFIDFMSRETADTDTADQVMASFKILAGDKNYITMDELRRELPPDQAEYCIARMAPYTGPDSVPGALDYMSFSTALYGESDL
modifications: full-length
B6: O94919 (protein, UniProt O94919 1-500, looked up)
chain: MGTARWLALGSLFALAGLLEGRLVGEEEAGFGECDKFFYAGTPPAGLAADSHVKICQRAEGAERFATLYSTRDRIPVYSAFRAPRPAPGGAEQRWLVEPQIDDPNSNLEEAINEAEAITSVNSLGSKQALNTDYLDSDYQRGQLYPFSLSSDVQVATFTLTNSAPMTQSFQERWYVNLHSLMDRALTPQCGSGEDLYILTGTVPSDYRVKDKVAVPEFVWLAACCAVPGGGWAMGFVKHTRDSDIIEDVMVKDLQKLLPFNPQLFQNNCGETEQDTEKMKKILEVVNQIQDEERMVQSQKSSSPLSSTRSKRSTLLPPEASEGSSSFLGKLMGFIATPFIKLFQLIYYLVVAILKNIVYFLWCVTKQVINGIESCLYRLGSATISYFMAIGEELVSIPWKVLKVVAKVIRALLRILCCLLKAICRVLSIPVRVLVDVATFPVYTMGAIPIVCKDIALGLGGTVSLLFDTAFGTLGGLFQVVFSVCKRIGYKVTFDNSGEL
modifications: full-length
B7: P29508 (protein, UniProt P29508 1-390, looked up)
chain: MNSLSEANTKFMFDLFQQFRKSKENNIFYSPISITSALGMVLLGAKDNTAQQIKKVLHFDQVTENTTGKAATYHVDRSGNVHHQFQKLLTEFNKSTDAYELKIANKLFGEKTYLFLQEYLDAIKKFYQTSVESVDFANAPEESRKKINSWVESQTNEKIKNLIPEGNIGSNTTLVLVNAIYFKGQWEKKFNKEDTKEEKFWPNKNTYKSIQMMRQYTSFHFASLEDVQAKVLEIPYKGKDLSMIVLLPNEIDGLQKLEEKLTAEKLMEWTSLQNMRETRVDLHLPRFKVEESYDLKDTLRTMGMVDIFNGDADLSGMTGSRGLVLSGVLHKAFVEVTEEGAEAAAATAVVGFGSSPTSTNEEFHCNHPFLFFIRQNKTNSILFYGRFSSP
modifications: full-length
B8: P52597 (protein, UniProt P52597 1-415, looked up)
chain: MMLGPEGGEGFVVKLRGLPWSCSVEDVQNFLSDCTIHDGAAGVHFIYTREGRQSGEAFVELGSEDDVKMALKKDRESMGHRYIEVFKSHRTEMDWVLKHSGPNSADSANDGFVRLRGLPFGCTKEEIVQFFSGLEIVPNGITLPVDPEGKITGEAFVQFASQELAEKALGKHKERIGHRYIEVFKSSQEEVRSYSDPPLKFMSVQRPGPYDRPGTARRYIGIVKQAGLERMRPGAYSTGYGGYEEYSGLSDGYGFTTDLFGRDLSYCLSGMYDHRYGDSEFTVQSTTGHCVHMRGLPYKATENDIYNFFSPLNPVRVHIEIGPDGRVTGEADVEFATHEEAVAAMSKDRANMQHRYIELFLNSTTGASNGAYSSQVMQGMGVSAAQATYSGLESQSVSGCYGAGYSGQNSMGGYD
modifications: full-length

Test system: proteins that co-immunoprecipitated with DUX4-CTD constructs expressed in MB135 myoblasts
Assay: LC-MS of proteins co-immunoprecipitated with DUX4-CTD (Table 1) and western validation
Type: binding, human
Set-up: key to 4. mL1dL2 + Dox + IFNG / 4. + IFNG mix / 4. longCTD + Dox + IFNG / 3. + IFNg + Dox longCTD / 3. + Dox longCTD / 3. + IFNG longCTD: peptide-spectrum matches (PSMs) per protein
Details: for 4. longCTD + Dox + IFNG: LC-MS counts of the listed protein co-immunoprecipitated with DUX4-CTD bait longCTD, experiment 4, Dox + IFNG; for 3. + Dox longCTD: experiment 3, Dox only; for SUM of PSMS: sum over all samples; for 3. + IFNg + Dox longCTD: experiment 3, IFNg + Dox
In short: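 Two independent experiments compared uninduced, doxycycline and doxycycline+IFNG MB135iDUX4-CTD (plus MB135iDUX4mL1dL2) myoblasts. Anti-FLAG pulldowns (3 h, 4 °C) were eluted in LDS buffer for western validation or with FLAG peptide for trypsin digestion and Orbitrap LC-MS; hits needed ≥2 PSMs in both experiments, ranked by total PSMs.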

| Molecule | 4. longCTD + Dox + IFNG | 3. + Dox longCTD (bait longCTD) | SUM of PSMS | 3. + IFNg + Dox longCTD (bait longCTD) | 3. + IFNG longCTD (bait longCTD, experiment 3, IFNG only, no doxycycline (bait at background level)) |
| --- | --- | --- | --- | --- | --- |
| B1 | 2 | 2 | 4 |  |  |
| B2 | 3 |  | 4 | 1 |  |
| B3 | 13 | 30 | 152 | 62 | 4 |
| B4 | 2 |  | 4 | 1 |  |
| B5 | 34 | 4 | 82 | 13 |  |
| B6 | 2 |  | 5 | 1 |  |
| B7 |  |  | 4 | 2 |  |
| B8 | 1 | 1 | 6 | 4 |  |
